Source: patent publication US20240245796A1 (PROFOUNDBIO US, published 2024)

Legend:
[1] = target: T1, human FOLR1 extracellular domain linked to His tag (human, UniProt P15328 25-233, limits assumed); assay: BLI, global 1:1 fit (125 nM row)
T1 construct: extracellular domain; It may be the same product as m13; also called Hu-FRα; Hu-Ag; not shown: His tag

[2] = target: T1, human FOLR1 extracellular domain linked …; assay: BLI, global 1:1 fit (125 nM row); remark: listed apart in the source
[3] = target: T2, cynomolgus monkey FOLR1 extracellular domain linked to His tag (cynomolgus monkey, UniProt A0A2K5U044 25-233); assay: BLI, global 1:1 fit (125 nM row)
T2 construct: extracellular domain; Antigen in solution in BLI; It may be the same product as m14; also called Cyno-Ag; not shown: His tag

[4] = target: T1, human FOLR1 extracellular domain linked …; assay: BLI, global 1:1 fit (500 nM row)
[5] = target: T2, cynomolgus monkey FOLR1 extracellular …; assay: BLI, global 1:1 fit (500 nM row)
[6] = target: T1, human FOLR1 extracellular domain linked …; assay: BLI, global 1:1 fit (15.6 nM row)
[7] = target: T2, cynomolgus monkey FOLR1 extracellular …; assay: BLI, global 1:1 fit (15.6 nM row)
[8] = target: T3, human FOLR1 protein, His Tag (ACRO FO1-H52H1) (human, UniProt P15328 25-233); assay: ELISA, coated hFOLR1-His, supernatant 1x
T3 construct: Bought protein coated on ELISA plates; not shown: His tag

[9] = target: T3, human FOLR1 protein, His Tag (ACRO …); assay: ELISA, coated hFOLR1-His, supernatant 5x
[10] = target: T3, human FOLR1 protein, His Tag (ACRO …); assay: ELISA, coated hFOLR1-His, supernatant 25x
[11] = target: T1, human FOLR1 extracellular domain linked …; assay: BLI, Ag 125 nM over Ab on anti-hIgG Fc tip
[12] = target: T2, cynomolgus monkey FOLR1 extracellular …; assay: BLI, Ag 125 nM over Ab on anti-hIgG Fc tip
[13] = target: T3, human FOLR1 protein, His Tag (ACRO …); assay: ELISA, coated hFOLR1-His, HEK293 supernatant
[14] = target: T4, cynomolgus FOLR1 protein, His Tag (ACRO F01-C52H8) (cynomolgus, UniProt A0A2K5U044 25-233); assay: ELISA, coated cyno FOLR1-His, supernatant 1x
T4 construct: Bought protein coated on ELISA plates; also called Cynomolgus/Rhesus macaque FOLR1, Protein, His Tag; not shown: His tag

[15] = target: T4, cynomolgus FOLR1 protein, His Tag (ACRO …); assay: ELISA, coated cyno FOLR1-His, supernatant 5x
[16] = target: T4, cynomolgus FOLR1 protein, His Tag (ACRO …); assay: ELISA, coated cyno FOLR1-His, supernatant 25x
[17] = target: T3, human FOLR1 protein, His Tag (ACRO …); assay: ratio of OD450 on hFOLR1 to OD450 on anti-human IgG Fc
[18] = target: T5, human FOLR3 extracellular domain linked to His tag (human, UniProt P41439 23-245, limits assumed); assay: BLI, global 1:1 fit (15.6 nM row); all responses below quantification
T5 construct: extracellular domain; Antigen in solution in BLI; also called Hu-FRg; not shown: His tag

[19] = target: T1, human FOLR1 extracellular domain linked …; assay: BLI, global 1:1 fit (500 nM row); Table 11 run (FOLR family panel, Hu-FRα)
[20] = target: T1, human FOLR1 extracellular domain linked …; assay: BLI, global 1:1 fit (500 nM row); Table 12 run (species FOLR α panel, Hu-Ag)
[21] = target: T6, mouse FOLR1 extracellular domain linked to His tag (mouse, UniProt P35846 25-232, limits assumed); assay: BLI, global 1:1 fit (500 nM row); only the 500 nM response quantifiable; only the 500 nM response quantifiable; R^2 0.6807
T6 construct: extracellular domain; Antigen in solution in BLI; also called Mouse-Ag; not shown: His tag
T6 sequence (P35846 25-232 limits assumed): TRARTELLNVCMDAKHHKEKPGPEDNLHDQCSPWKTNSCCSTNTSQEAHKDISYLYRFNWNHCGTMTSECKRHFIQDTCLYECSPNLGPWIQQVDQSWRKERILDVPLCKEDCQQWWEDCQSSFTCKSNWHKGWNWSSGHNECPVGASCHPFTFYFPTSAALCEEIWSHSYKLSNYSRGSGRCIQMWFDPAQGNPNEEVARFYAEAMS

T2 sequence (A0A2K5U044 entry or part of it): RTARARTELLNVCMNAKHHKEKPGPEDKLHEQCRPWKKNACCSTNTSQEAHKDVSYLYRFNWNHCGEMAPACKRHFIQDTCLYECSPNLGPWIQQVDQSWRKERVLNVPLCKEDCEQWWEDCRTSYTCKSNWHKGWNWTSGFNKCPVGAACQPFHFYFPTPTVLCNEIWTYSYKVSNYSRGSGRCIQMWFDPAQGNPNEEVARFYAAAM
T4 sequence (A0A2K5U044 entry or part of it): as above
T1 sequence (P15328 25-233 limits assumed): as the sequence (A0A2K5U044 entry or part of it) above, with T2I, R4W, K37R, P146A, Y171H counted along it
T3 sequence (P15328 25-233 limits assumed): as the sequence (A0A2K5U044 entry or part of it) above, with T2I, R4W, K37R, P146A, Y171H counted along it
T5 sequence (P41439 23-245 limits assumed): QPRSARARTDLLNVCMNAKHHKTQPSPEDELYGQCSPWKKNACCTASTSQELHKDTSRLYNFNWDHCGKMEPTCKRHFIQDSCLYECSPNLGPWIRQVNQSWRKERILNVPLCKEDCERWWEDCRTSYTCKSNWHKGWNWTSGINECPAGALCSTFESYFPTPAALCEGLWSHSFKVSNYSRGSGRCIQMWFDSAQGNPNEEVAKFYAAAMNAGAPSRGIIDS

B1: F131 (antibody, V domains shown)
VH: EVQLLESGGGVVQPGRSLRLSCAASGFTFSSYGMHWVRQAPGKGLEWVAVISYDGSNKYYADSVKGRFTISRANSKNTLYLQMNSLRAEDTAVYYCARPRAYYGAYGSSFDYWGQGTQVTVSS
VL: EIVMTQSPSSVSASVGDRVAITCRASQGISSWLAWYQQKPGKAPKLLIYAASSLQSGVPSRFSGSGSGTDFTLTISSLQPEDFATYYCQQSYSTPLTFGGGTKVDIK
notes: also called clone F131; F131 mAb
B1 gave a Kd [1] of 5.3 nM, a koff [1] of 0.0012 s⁻¹ and a kon [1] of 226000 M⁻¹ s⁻¹. The Kd [2] was 1.53 nM, the koff [2] was 0.000338 s⁻¹ and the kon [2] was 221000 M⁻¹ s⁻¹. The Kd [3] was 8.15 nM, the koff [3] was 0.00157 s⁻¹ and the kon [3] was 193000 M⁻¹ s⁻¹. It also gave a koff [4] of 0.000338 s⁻¹, a kon [4] of 221000 M⁻¹ s⁻¹ and a Kd [5] of 8.15 nM. The koff [5] was 0.00157 s⁻¹, the kon [5] was 193000 M⁻¹ s⁻¹ and the Kd [6] was 1.53 nM. It also gave a koff [6] of 0.000338 s⁻¹, a kon [6] of 221000 M⁻¹ s⁻¹ and a Kd [7] of 8.15 nM. For the same binder, the koff [7] was 0.00157 s⁻¹, the kon [7] was 193000 M⁻¹ s⁻¹ and the OD450 [8] was 1.61 OD450. It also gave an OD450 [9] of 1.52 OD450, an OD450 [10] of 1.38 OD450 and a Response [11] of 0.146. The Response [12] was 0.177, the OD450 [13] was 2.35 OD450 and the OD450 [14] was 1.2 OD450. For the same binder, the OD450 [15] was 1.27 OD450, the OD450 [16] was 1.09 OD450 and the “Target binding/IgG level” value [17] was 1.02. The koff [18] was 0.217 s⁻¹, the kon [18] was 1660 M⁻¹ s⁻¹ and the Kd [19] was 5.3 nM. It also gave a Kd [20] of 1.53 nM and a Kd [21] of 2960 nM.

B2: F131-LD038 (antibody, V domains shown)
VH: B1 VH
VL: B1 VL
modifications: drug-linker LD038 (PB038, maleimide-PEG unit-Val-Cit-PAB-exatecan) on cysteines freed by TCEP reduction; positions not given
notes: Antibody-drug conjugate of F131 (IgG1) with LD038; also called anti-huFOLR-1 conjugate F131-LD038; F131-038
Binder B2 has a Kd [1] of 4.79 nM, a koff [1] of 0.00121 s⁻¹ and a kon [1] of 252000 M⁻¹ s⁻¹. The Kd [2] was 4.8 nM, the koff [2] was 0.00107 s⁻¹ and the kon [2] was 224000 M⁻¹ s⁻¹. It also gave a Kd [3] of 8.82 nM, a koff [3] of 0.0016 s⁻¹ and a kon [3] of 181000 M⁻¹ s⁻¹. The Kd [4] was 4.8 nM, the koff [4] was 0.00107 s⁻¹ and the kon [4] was 224000 M⁻¹ s⁻¹. The Kd [5] was 8.82 nM, the koff [5] was 0.0016 s⁻¹ and the kon [5] was 181000 M⁻¹ s⁻¹. For the same binder, the Kd [6] was 4.8 nM, the koff [6] was 0.00107 s⁻¹ and the kon [6] was 224000 M⁻¹ s⁻¹. It also gave a Kd [7] of 8.82 nM, a koff [7] of 0.0016 s⁻¹ and a kon [7] of 181000 M⁻¹ s⁻¹. It also gave a Response [11] of 0.158, a Response [12] of 0.152 and a koff [18] of 0.233 s⁻¹.
